Assay results published in US20140087995A1 (published 2014).
Numbered stars: 1 amine (or outer) side, 2 acyl side, 3 side chain; on linkers, the order of the positions; unused ones are H or OH. Bridge positions count the residues as written; N and C are the ends. Side chains are listed from the residue outwards. Ends that are not written are not given here. * marks the point of attachment. C20 diacid = O=C(O)CCCCCCCCCCCCCCCCCCC(=O)*; γGlu = O=C(O)[C@H](CCC(=O)[*:2])N[*:1]; AEEA = NCCOCCOCC(=O)O

T1: human calcitonin receptor (human, UniProt P30988 25-474)
T1 construct: whole, on cells; also called hCTR; hCT
T1 sequence (looked up): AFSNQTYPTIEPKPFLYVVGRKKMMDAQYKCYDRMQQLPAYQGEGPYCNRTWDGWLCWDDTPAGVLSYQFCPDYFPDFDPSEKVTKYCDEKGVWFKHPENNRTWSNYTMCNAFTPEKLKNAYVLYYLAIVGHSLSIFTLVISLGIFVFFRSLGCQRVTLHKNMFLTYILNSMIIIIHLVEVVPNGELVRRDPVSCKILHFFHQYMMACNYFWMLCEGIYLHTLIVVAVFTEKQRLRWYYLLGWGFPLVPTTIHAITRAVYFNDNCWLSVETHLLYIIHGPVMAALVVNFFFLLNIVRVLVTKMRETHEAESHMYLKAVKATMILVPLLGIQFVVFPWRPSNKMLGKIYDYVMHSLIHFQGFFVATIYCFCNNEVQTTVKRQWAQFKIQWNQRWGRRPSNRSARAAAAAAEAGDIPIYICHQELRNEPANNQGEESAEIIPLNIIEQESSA


Tests used:
[1] = biological target: T1, human calcitonin receptor; test: SPA radioligand competition (125I-calcitonin), membranes of BHK cells with human calcitonin receptor
How it was run: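 BHK hCTR membranes 35 ng/μL + SPA beads 0.05 mg/well; buffer 50 mM Hepes pH 7.4, 1 mM CaCl2, 5 mM MgCl₂, 0.1% OA, 0.02% Tween20. 120 min, 25° C., shaking. Scintillation count; IC50 by one-site binding competition.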

[2] = biological target: T1, human calcitonin receptor; test: ratio of IC50 at human calcitonin receptor to IC50 at human amylin receptor (SPA competition assays)
How it was run: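 Membranes (35 ng/μL final) + SPA beads, 50 mM Hepes pH 7.4 buffer with 1 mM CaCl2, 5 mM MgCl₂, 0.1% OA, 0.02% Tween20; 120 min, 25° C, shaking; centrifuged, counted; IC₅₀ by one-site binding competition.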

Row | Binder | IC50 [1] [nM] | Ratio hCT/hAmylin binding [2]
1 | K([γGlu-γGlu-C20 diacid])CNTATCATQRLAHFLRHSSPNFGAIPSSTNVGSNTY-NH2 (disulfide 2-7; N-terminus assumed; SMILES CC[C@H](C)[C@H](NC(=O)[C@H](C)NC(=O)CNC(=O)[C@H](Cc1ccccc1)NC(=O)[C@H](CC(N)=O)NC(=O)[C@@H]1CCCN1C(=O)[C@H](CO)NC(=O)[C@H](CO)NC(=O)[C@H](Cc1c[nH]cn1)NC(=O)[C@H](CCCNC(=N)N)NC(=O)[C@H](CC(C)C)NC(=O)[C@H](Cc1ccccc1)NC(=O)[C@H](Cc1c[nH]cn1)NC(=O)[C@H](C)NC(=O)[C@H](CC(C)C)NC(=O)[C@H](CCCNC(=N)N)NC(=O)[C@H](CCC(N)=O)NC(=O)[C@@H](NC(=O)[C@H](C)NC(=O)[C@@H]1CSSC[C@H](NC(=O)[C@@H](N)CCCCNC(=O)CC[C@H](NC(=O)CC[C@H](NC(=O)CCCCCCCCCCCCCCCCCCC(=O)O)C(=O)O)C(=O)O)C(=O)N[C@@H](CC(N)=O)C(=O)N[C@@H]([C@@H](C)O)C(=O)N[C@@H](C)C(=O)N[C@@H]([C@@H](C)O)C(=O)N1)[C@@H](C)O)C(=O)N1CCC[C@H]1C(=O)N[C@@H](CO)C(=O)N[C@@H](CO)C(=O)N[C@H](C(=O)N[C@@H](CC(N)=O)C(=O)N[C@H](C(=O)NCC(=O)N[C@@H](CO)C(=O)N[C@@H](CC(N)=O)C(=O)N[C@H](C(=O)N[C@@H](Cc1ccc(O)cc1)C(N)=O)[C@@H](C)O)C(C)C)[C@@H](C)O, also called compound 92) | 26 | 145
2 | K([γGlu-C20 diacid])CNTATCATQRLANFLRHSSPNFGAIPSSTNVGHNTY-NH2 (disulfide 2-7; N-terminus assumed; SMILES CC[C@H](C)[C@H](NC(=O)[C@H](C)NC(=O)CNC(=O)[C@H](Cc1ccccc1)NC(=O)[C@H](CC(N)=O)NC(=O)[C@@H]1CCCN1C(=O)[C@H](CO)NC(=O)[C@H](CO)NC(=O)[C@H](Cc1c[nH]cn1)NC(=O)[C@H](CCCNC(=N)N)NC(=O)[C@H](CC(C)C)NC(=O)[C@H](Cc1ccccc1)NC(=O)[C@H](CC(N)=O)NC(=O)[C@H](C)NC(=O)[C@H](CC(C)C)NC(=O)[C@H](CCCNC(=N)N)NC(=O)[C@H](CCC(N)=O)NC(=O)[C@@H](NC(=O)[C@H](C)NC(=O)[C@@H]1CSSC[C@H](NC(=O)[C@@H](N)CCCCNC(=O)CC[C@H](NC(=O)CCCCCCCCCCCCCCCCCCC(=O)O)C(=O)O)C(=O)N[C@@H](CC(N)=O)C(=O)N[C@@H]([C@@H](C)O)C(=O)N[C@@H](C)C(=O)N[C@@H]([C@@H](C)O)C(=O)N1)[C@@H](C)O)C(=O)N1CCC[C@H]1C(=O)N[C@@H](CO)C(=O)N[C@@H](CO)C(=O)N[C@H](C(=O)N[C@@H](CC(N)=O)C(=O)N[C@H](C(=O)NCC(=O)N[C@@H](Cc1c[nH]cn1)C(=O)N[C@@H](CC(N)=O)C(=O)N[C@H](C(=O)N[C@@H](Cc1ccc(O)cc1)C(N)=O)[C@@H](C)O)C(C)C)[C@@H](C)O, also called compound 77) [N^ε1-[(4S)-4-carboxy-4-(19-carboxynonadecanoylamino)butanoyl]-[Arg17,Pro21,Pro27,His34]-h-amylin] | 50.7 | 118
3 | K([γGlu-γGlu-C20 diacid])CNTATCATQRLANFLRHSSPNFGAIPSSTNVGHNTY-NH2 (disulfide 2-7; N-terminus assumed; SMILES CC[C@H](C)[C@H](NC(=O)[C@H](C)NC(=O)CNC(=O)[C@H](Cc1ccccc1)NC(=O)[C@H](CC(N)=O)NC(=O)[C@@H]1CCCN1C(=O)[C@H](CO)NC(=O)[C@H](CO)NC(=O)[C@H](Cc1c[nH]cn1)NC(=O)[C@H](CCCNC(=N)N)NC(=O)[C@H](CC(C)C)NC(=O)[C@H](Cc1ccccc1)NC(=O)[C@H](CC(N)=O)NC(=O)[C@H](C)NC(=O)[C@H](CC(C)C)NC(=O)[C@H](CCCNC(=N)N)NC(=O)[C@H](CCC(N)=O)NC(=O)[C@@H](NC(=O)[C@H](C)NC(=O)[C@@H]1CSSC[C@H](NC(=O)[C@@H](N)CCCCNC(=O)CC[C@H](NC(=O)CC[C@H](NC(=O)CCCCCCCCCCCCCCCCCCC(=O)O)C(=O)O)C(=O)O)C(=O)N[C@@H](CC(N)=O)C(=O)N[C@@H]([C@@H](C)O)C(=O)N[C@@H](C)C(=O)N[C@@H]([C@@H](C)O)C(=O)N1)[C@@H](C)O)C(=O)N1CCC[C@H]1C(=O)N[C@@H](CO)C(=O)N[C@@H](CO)C(=O)N[C@H](C(=O)N[C@@H](CC(N)=O)C(=O)N[C@H](C(=O)NCC(=O)N[C@@H](Cc1c[nH]cn1)C(=O)N[C@@H](CC(N)=O)C(=O)N[C@H](C(=O)N[C@@H](Cc1ccc(O)cc1)C(N)=O)[C@@H](C)O)C(C)C)[C@@H](C)O, also called compound 86) | 133 | 159
4 | K([AEEA-C20 diacid])CNTATCATQRLANFLRHSSPNFGAIPSSTNVGHNTY-NH2 (disulfide 2-7; N-terminus assumed; SMILES CC[C@H](C)[C@H](NC(=O)[C@H](C)NC(=O)CNC(=O)[C@H](Cc1ccccc1)NC(=O)[C@H](CC(N)=O)NC(=O)[C@@H]1CCCN1C(=O)[C@H](CO)NC(=O)[C@H](CO)NC(=O)[C@H](Cc1c[nH]cn1)NC(=O)[C@H](CCCNC(=N)N)NC(=O)[C@H](CC(C)C)NC(=O)[C@H](Cc1ccccc1)NC(=O)[C@H](CC(N)=O)NC(=O)[C@H](C)NC(=O)[C@H](CC(C)C)NC(=O)[C@H](CCCNC(=N)N)NC(=O)[C@H](CCC(N)=O)NC(=O)[C@@H](NC(=O)[C@H](C)NC(=O)[C@@H]1CSSC[C@H](NC(=O)[C@@H](N)CCCCNC(=O)COCCOCCNC(=O)CCCCCCCCCCCCCCCCCCC(=O)O)C(=O)N[C@@H](CC(N)=O)C(=O)N[C@@H]([C@@H](C)O)C(=O)N[C@@H](C)C(=O)N[C@@H]([C@@H](C)O)C(=O)N1)[C@@H](C)O)C(=O)N1CCC[C@H]1C(=O)N[C@@H](CO)C(=O)N[C@@H](CO)C(=O)N[C@H](C(=O)N[C@@H](CC(N)=O)C(=O)N[C@H](C(=O)NCC(=O)N[C@@H](Cc1c[nH]cn1)C(=O)N[C@@H](CC(N)=O)C(=O)N[C@H](C(=O)N[C@@H](Cc1ccc(O)cc1)C(N)=O)[C@@H](C)O)C(C)C)[C@@H](C)O, also called compound 91) [N^ε1-[2-[2-[2-(19-carboxynonadecanoylamino)ethoxy]ethoxy]acetyl]-[Arg17,Pro21,Pro27,His34]-h-amylin] | 12 | 101
5 | K([AEEA-AEEA-γGlu-C20 diacid])CNTATCATQRLANFLRHSSPNFGAIPSSTNVGHNTY-NH2 (disulfide 2-7; N-terminus assumed; SMILES CC[C@H](C)[C@H](NC(=O)[C@H](C)NC(=O)CNC(=O)[C@H](Cc1ccccc1)NC(=O)[C@H](CC(N)=O)NC(=O)[C@@H]1CCCN1C(=O)[C@H](CO)NC(=O)[C@H](CO)NC(=O)[C@H](Cc1c[nH]cn1)NC(=O)[C@H](CCCNC(=N)N)NC(=O)[C@H](CC(C)C)NC(=O)[C@H](Cc1ccccc1)NC(=O)[C@H](CC(N)=O)NC(=O)[C@H](C)NC(=O)[C@H](CC(C)C)NC(=O)[C@H](CCCNC(=N)N)NC(=O)[C@H](CCC(N)=O)NC(=O)[C@@H](NC(=O)[C@H](C)NC(=O)[C@@H]1CSSC[C@H](NC(=O)[C@@H](N)CCCCNC(=O)COCCOCCNC(=O)COCCOCCNC(=O)CC[C@H](NC(=O)CCCCCCCCCCCCCCCCCCC(=O)O)C(=O)O)C(=O)N[C@@H](CC(N)=O)C(=O)N[C@@H]([C@@H](C)O)C(=O)N[C@@H](C)C(=O)N[C@@H]([C@@H](C)O)C(=O)N1)[C@@H](C)O)C(=O)N1CCC[C@H]1C(=O)N[C@@H](CO)C(=O)N[C@@H](CO)C(=O)N[C@H](C(=O)N[C@@H](CC(N)=O)C(=O)N[C@H](C(=O)NCC(=O)N[C@@H](Cc1c[nH]cn1)C(=O)N[C@@H](CC(N)=O)C(=O)N[C@H](C(=O)N[C@@H](Cc1ccc(O)cc1)C(N)=O)[C@@H](C)O)C(C)C)[C@@H](C)O, also called compound 97) | 58.9 | 104

Now those with a lower IC50 [1], led by results:

Row | IC50 [1] [nM] | Ratio hCT/hAmylin binding [2] | Binder
6 | 1.56 | 22.6 | K([γGlu-γGlu-C20 diacid])CNTATCATQRLAEFLRHSSPNFGAILSSTPVGPETY-NH2 (disulfide 2-7)
7 | 3.44 | 45.3 | K([γGlu-γGlu-C20 diacid])CNTATCATQRLASFLRHSSPNFGAIPSSTNVGPETY-NH2 (disulfide 2-7; N-terminus assumed; SMILES CC[C@H](C)[C@H](NC(=O)[C@H](C)NC(=O)CNC(=O)[C@H](Cc1ccccc1)NC(=O)[C@H](CC(N)=O)NC(=O)[C@@H]1CCCN1C(=O)[C@H](CO)NC(=O)[C@H](CO)NC(=O)[C@H](Cc1c[nH]cn1)NC(=O)[C@H](CCCNC(=N)N)NC(=O)[C@H](CC(C)C)NC(=O)[C@H](Cc1ccccc1)NC(=O)[C@H](CO)NC(=O)[C@H](C)NC(=O)[C@H](CC(C)C)NC(=O)[C@H](CCCNC(=N)N)NC(=O)[C@H](CCC(N)=O)NC(=O)[C@@H](NC(=O)[C@H](C)NC(=O)[C@@H]1CSSC[C@H](NC(=O)[C@@H](N)CCCCNC(=O)CC[C@H](NC(=O)CC[C@H](NC(=O)CCCCCCCCCCCCCCCCCCC(=O)O)C(=O)O)C(=O)O)C(=O)N[C@@H](CC(N)=O)C(=O)N[C@@H]([C@@H](C)O)C(=O)N[C@@H](C)C(=O)N[C@@H]([C@@H](C)O)C(=O)N1)[C@@H](C)O)C(=O)N1CCC[C@H]1C(=O)N[C@@H](CO)C(=O)N[C@@H](CO)C(=O)N[C@H](C(=O)N[C@@H](CC(N)=O)C(=O)N[C@H](C(=O)NCC(=O)N1CCC[C@H]1C(=O)N[C@@H](CCC(=O)O)C(=O)N[C@H](C(=O)N[C@@H](Cc1ccc(O)cc1)C(N)=O)[C@@H](C)O)C(C)C)[C@@H](C)O, also called compound 120)
